Laboratory results as given in the DeepSol protein solubility set.

Assay: soluble on expression in E. coli; label from the status in PepcDB or PDB records

In the case of “GMDKLNEYRTKVRQLLTKHLQYKPSYGDVEVEQIFDEEHDHYQIISVGWNNQHRIYGPIMHLDIKNNKIWIQQNTTEADIALELMEMGIDKQDIVIGFHTPKMRQLSGFAVE”, the “soluble on expression in E. coli” value was “soluble”.

With “MKYLLVDLSGKVDNYDKALYQALEKELSNEKSSIQLLIPGHGLIRLIPNKFSQTEFIVKRLIKALEGGINYIYLLLHVAFKKIDTIHFQWLPFVEVVGIEKYILYLLHVLSPQTKVILTIHNIYPHGVKSMSDSGKQKYKKRFRDTCRNIDNIIVHTESSKMEVIKEFDFVPDIISIVHHGVFIPKIRISKKEFLQKNKYVILQFGLQTYYKGTDILVDAVNLLPAEYSEKIETRIVGGVGESYLQELKGKDSNSLIHWKSYFLSNDELYEEINNSDVLVLPYREISQSGVLLLSIYFEKNIICSDLPSFVETIHGDQDNSLDHDFFFKNNDPSSLCELLMRYIDSNINNEKIQYRIKHLKNLYSWENAAKATISIYRK” the “soluble on expression in E. coli” value was “not soluble”.

In the case of “MIAITGATGQLGQHVIENLLKTTPASHLVAIVRNPKKAAPLSQRGIAVRQADYANEAALTTALQGVDKLLLISSSEVGQRTAQHRNVIQAAIAAKVKFIAYTSLLHADKSPLALADEHIETEKMLAESGIPHTLLRNGWYTENYLASVPAALKHGVFIGAAGEGKIASAMRADYAAAAARVIREEGHAGNVYELAGDDAWTLSQLADELTHQSGKKIVYQNLSEVDFAAALKGAGLPDGLADMLANSDAGAAKGGLFDDSHTLRKLIGRPTTTLTESLRSVL”, the “soluble on expression in E. coli” value was “not soluble”.

For “MGSDKIHHHHHHATRSGKTPVSVELEIGGLPGDESVDDAIDPDLENPNTSFDLLFIPKEFTFETQAISGDLTAVPIRPSEGNTHTMRHFGMGDVRGALTGWHVTAEIPHMRNEAHSLLGIITFQLTGSYARYDKTLRRFFMTNTMYGLDFSEDPAAPDFPTNPIIIGNGATLMSNAGDRKGQGMWSGRMTDISLAIQTPVSQLFPGAYTGSIIWNLISGPV”, the “soluble on expression in E. coli” value was “not soluble”.

In the case of “MENKTLDHTLQGAPLWLTNFVLVYQKLSKENLQLLATIYHENVTFIDPLHTVEGFDDLYQYFENLYQNLSACDFVIEEVIWQDSQASLFWTMTYQHPKLNKGKMVTVVGTSHIKGEGDKVIYHRDFLDLGAMLYEQLPILGKLTKWIKTKAAN”, the “soluble on expression in E. coli” value was “not soluble”.

In the case of “MKIKRLSLWHVPLTSHTAYYMAEGKTCDTVETAVLCIETDTGLTGWGEVCPIPHYLPAYARGVGPALSELAPVILSADPIGPEALMAKADAYLPDHRYAKSALDIALWDLTGQAAGLPLHALLGGQRQADLPLYHSITCIEPDEMARIAIEAQAQGMTQFQAKLGASGDWQTDVERLIKVREAVGSGPILYGDWNCGSTSLDATRTGRAVAHLDIMLEQPCATIEDCARVHSATGLPMKLDELVHDTASLLKAHQLGLMDVAALKLSKFGGLSATRRARDLCLHLGAKMCVEDTWGSDITTAAVLHLGAATDPARVLNVCDLSGYVSPRLAQDAPTRAQGRIAPPQAAGLGIAVDKTALGQPELILD”, the “soluble on expression in E. coli” value was “soluble”.

For “MKFLKNVLEEGSKLEEFNELELSPEDKELLEYLQQTKAKITVVGCGGAGNNTITRLKMEGIEGAKTVAINTDAQQLIRTKADKKILIGKKLTRGLGAGGNPKIGEEAAKESAEEIKAAIQDSDMVFITCGLGGGTGTGSAPVVAEISKKIGALTVAVVTLPFVMEGKVRMKNAMEGLERLKQHTDTLVVIPNEKLFEIVPNMPLKLAFKVADEVLINAVKGLVELITKDGLINVDFADVKAVMNNGGLAMIGIGESDSEKRAKEAVSMALNSPLLDVDIDGATGALIHVMGPEDLTLEEAREVVATVSSRLDPNATIIWGATIDENLENTVRVLLVITGVQSRIEFTDTGLKRKKLELTGIPKIGSHHHHHH”, the “soluble on expression in E. coli” value was “soluble”.

For “MSMSNGDAQKDTKTTAETKQTEQKTADSKKSNTQNSEFSLESQYFNDIKKVDGLETIQNPENILALVNKQYALPGNYEPSDLVIPDVEFSFEEKIQKRYIRKEAADALKTMFDAAKKEGYELAAVSGYRSYDRQKVIFDNEVSLKGERKAKEAVAYPGESEHQTGLAMDISSRSNGFELNEAFGSTADGKWVQDNAYKYGFIIRYPKNKEDITKYEYEPWHLRYVGKKAAKVIQDNDLTLEEYFEKVKKILEHHHHHH”, the “soluble on expression in E. coli” value was “not soluble”.
